According to PMC8674365, “PP2A phosphatase inhibition is anti-fibrotic through Ser77 phosphorylation-mediated ARNT/ARNT homodimer formation” (Scientific Reports, 2021):

Assays:
[1] = molecular target: the molecule itself; assay: immunoprecipitation and MALDI-TOF mass spectrometry; endogenous ARNT pulled down from extracts of LB100-treated MCT cells with ARNT antibody, eluted with 0.3% TFA, sinapinic acid matrix, linear positive mode
[2] = molecular target: the molecule itself; assay: native MS; liquid native MALDI mass spectrometry of endogenous ARNT pulled down from total kidney lysates of LB100-treated UUO mice; eluted in 0.3% TFA, mixed with ammonium acetate buffer (100 mM, pH 9), glycerol

Protein | stoichiometry N [1] | stoichiometry N [2]
Endogenous ARNT of mouse tubular epithelial cells (MCT) (natural protein, Aryl hydrocarbon receptor nuclear translocator (ARNT), endogenous in the murine proximal tubular epithelial cell line MCT; source: endogenous, MCT cell extract, immunoprecipitated with ARNT antibody) not shown | 2 | 
Endogenous ARNT of mouse kidney (UUO-challenged C57BL/6 mice) (natural protein, Aryl hydrocarbon receptor nuclear translocator (ARNT), endogenous in kidney tissue of C57BL/6 mice; source: endogenous, total kidney lysate of mice, immunoprecipitated with ARNT antibody) not shown |  | 2
